Source: US7183387 (Genentech, dated 2007)

T1: human FcγRIIA-R131 α subunit extracellular domain-6His-GST fusion (human, UniProt P12318 34-217)
T1 construct: also called FcγRIIA-Arg131; not shown: glutathione S-transferase (GST)
T1 sequence: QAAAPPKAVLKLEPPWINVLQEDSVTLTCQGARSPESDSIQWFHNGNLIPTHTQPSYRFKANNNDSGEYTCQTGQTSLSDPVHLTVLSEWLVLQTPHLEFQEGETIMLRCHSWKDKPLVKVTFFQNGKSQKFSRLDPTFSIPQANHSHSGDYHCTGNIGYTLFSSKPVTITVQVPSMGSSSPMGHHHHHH

T2: human FcγRIIB α subunit extracellular domain-6His-GST fusion (human, UniProt P31994 43-217)
T2 construct: not shown: glutathione S-transferase (GST)
T2 sequence: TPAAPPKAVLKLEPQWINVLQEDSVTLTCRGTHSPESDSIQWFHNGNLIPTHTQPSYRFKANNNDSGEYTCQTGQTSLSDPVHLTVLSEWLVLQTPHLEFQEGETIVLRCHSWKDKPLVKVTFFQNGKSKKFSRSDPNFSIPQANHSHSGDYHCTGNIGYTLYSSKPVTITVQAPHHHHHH

B1: E27 IgG1 variant K334(353)G (antibody)
heavy: not shown
light: DIQLTQSPSSLSASVGDRVTITCRASKPVDGEGDSYLNWYQQKPGKAPKLLIYAASYLESGVPSRFSGSGSGTDFTLTISSLQPEDFATYYCQQSHEDPYTFGQGTKVEIKRTVAAPSVFIFPPSDEQLKSGTASVVCLLNNFYPREAKVQWKVDNALQSGNSQESVTEQDSKDSTYSLSSTLTLSKADYEKHKVYACEVTHQGLSSPVTKSFNRGEC
notes: also called IG2 179
B2: E27 IgG1 variant E272(285)N (antibody)
heavy: not shown
light: B1 light
notes: also called IG2 224
B3: E27 IgG1 variant E272(285)Q (antibody)
heavy: not shown
light: B1 light
notes: also called IG2 223
B4: E27 IgG1 variant H268(281)Y (antibody)
heavy: not shown
light: B1 light
notes: also called IG2 87
B5: E27 IgG1 variant E333(352)G (antibody)
heavy: not shown
light: B1 light
notes: also called IG2 178
B6: E27 IgG1 variant A327(346)S (antibody)
heavy: not shown
light: B1 light
B7: E27 IgG1 variant D270(283)E (antibody)
heavy: not shown
light: B1 light
notes: also called IG2 93
B8: E27 IgG1 variant E283(300)Q (antibody)
heavy: not shown
light: B1 light
notes: also called IG2 226
B9: E27 IgG1 variant H268(281)S (antibody)
heavy: not shown
light: B1 light
notes: also called IG2 85
B10: E27 IgG1 variant E294(311)D (antibody)
heavy: not shown
light: B1 light
notes: also called IG2 174
B11: E27 IgG1 variant K290(307)Q (antibody)
heavy: not shown
light: B1 light
notes: also called IG2 73
B12: E27 IgG1 variant E293(310)K (antibody)
heavy: not shown
light: B1 light
B13: E27 IgG1 variant D280(295)N (antibody)
heavy: not shown
light: B1 light
notes: also called IG2 79
B14: E27 IgG1 variant A330(349)D (antibody)
heavy: not shown
light: B1 light
B15: E27 IgG1 variant E283(300)D (antibody)
heavy: not shown
light: B1 light
B16: E27 IgG1 variant K274(287)Q (antibody)
heavy: not shown
light: B1 light
B17: E27 IgG1 variant E283(300)S (antibody)
heavy: not shown
light: B1 light
notes: also called IG2 227
B18: E27 IgG1 variant D249(262)E (antibody)
heavy: not shown
light: B1 light
notes: also called IG2 222
B19: E27 IgG1 variant S267(280)T (antibody)
heavy: not shown
light: B1 light
B20: E27 IgG1 variant E318(337)K (antibody)
heavy: not shown
light: B1 light
B21: E27 IgG1 variant D265(278)E (antibody)
heavy: not shown
light: B1 light
notes: also called IG2 158
B22: E27 IgG1 variant E269(282)Q (antibody)
heavy: not shown
light: B1 light
notes: also called IG2 169
B23: E27 IgG1 variant D265(278)N (antibody)
heavy: not shown
light: B1 light
B24: E27 IgG1 variant E333(352)Q (antibody)
heavy: not shown
light: B1 light
B25: E27 IgG1 variant E269(282)D (antibody)
heavy: not shown
light: B1 light
B26: E27 IgG1 variant A330(349)K (antibody)
heavy: not shown
light: B1 light
notes: also called IG2 197
B27: E27 IgG1 variant K290(307)G (antibody)
heavy: not shown
light: B1 light
notes: also called IG2 177
B28: E27 IgG1 variant H268(281)N (antibody)
heavy: not shown
light: B1 light
notes: also called IG2 84
B29: E27 IgG1 variant E333(352)N (antibody)
heavy: not shown
light: B1 light
B30: E27 IgG1 variant A327(346)G (antibody)
heavy: not shown
light: B1 light
B31: E27 IgG1 variant D280(295)S (antibody)
heavy: not shown
light: B1 light
B32: E27 IgG1 variant D270(283)N (antibody)
heavy: not shown
light: B1 light
notes: also called IG2 92
B33: E27 IgG1 variant E293(310)D (antibody)
heavy: not shown
light: B1 light
B34: E27 IgG1 variant E294(311)Q (antibody)
heavy: not shown
light: B1 light
notes: also called IG2 173
B35: E27 IgG1 variant E333(352)R (antibody)
heavy: not shown
light: B1 light
B36: E27 IgG1 variant E293(310)Q (antibody)
heavy: not shown
light: B1 light
B37: E27 IgG1 variant E283(300)N (antibody)
heavy: not shown
light: B1 light
notes: also called IG2 228
B38: E27 IgG1 variant E333(352)D (antibody)
heavy: not shown
light: B1 light
B39: E27 IgG1 variant E333(352)S (antibody)
heavy: not shown
light: B1 light
notes: also called IG2 143
B40: E27 IgG1 variant E333(352)K (antibody)
heavy: not shown
light: B1 light

biological target: T1, human FcγRIIA-R131 α subunit …; test: ELISA, IgG:IgE hexamers on receptor-GST

Point of comparison: B19, “ratio to native IgG1” value 0.42. Against it:
- B1 — higher, 0.76
- B2 — higher, 0.43
- B3 — higher, 1.93
- B4 — higher, 1.19
- B5 — higher, 0.87
- B6 — lower, 0.23
- B7 — lower, 0.08
- B8 — higher, 1.12
- B9 — higher, 1.35
- B10 — lower, 0.37
- B11 — higher, 1.17
- B12 — higher, 1.13
- B13 — higher, 1.07
- B14 — lower, 0.18
- B15 — higher, 1.14
- B16 — higher, 0.86
- B17 — higher, 1.03
- B18 — higher, 0.97
- B20 — higher, 1.03
- B21 — lower, 0.11
- B22 — lower, 0.08
- B23 — lower, 0.02
- B24 — higher, 0.7
- B25 — higher, 0.89
- B26 — higher, 1.28
- B27 — higher, 1.07
- B28 — higher, 1.33
- B29 — higher, 0.59
- B30 — higher, 0.92
- B31 — higher, 1.07
- B32 — lower, 0.03
- B33 — higher, 0.9
- B34 — higher, 1.01
- B35 — higher, 0.75
- B36 — higher, 0.85
- B37 — higher, 1.18

biological target: T2, human FcγRIIB α subunit extracellular …; test: ELISA, IgG:IgE hexamers on receptor-GST

Point of comparison: B26, “ratio to native IgG1” value 1.25. Against it:
- B1 — lower, 0.6
- B2 — lower, 0.23
- B3 — higher, 1.81
- B4 — higher, 1.29
- B5 — lower, 0.76
- B6 — lower, 0.22
- B7 — lower, 0.06
- B8 — lower, 1.24
- B9 — higher, 1.38
- B10 — lower, 0.26
- B11 — higher, 1.26
- B12 — higher, 1.31
- B13 — lower, 1.22
- B14 — lower, 0.08
- B15 — lower, 1.23
- B16 — lower, 0.94
- B17 — lower, 1.07
- B18 — lower, 0.99
- B19 — lower, 0.45
- B20 — lower, 1.08
- B21 — lower, 0.03
- B22 — lower, 0.16
- B23 — lower, 0.03
- B24 — lower, 0.64
- B25 — lower, 0.73
- B27 — lower, 1.21
- B28 — higher, 1.41
- B29 — lower, 0.52
- B30 — lower, 0.83
- B31 — lower, 1.04
- B32 — lower, 0.05
- B33 — lower, 0.88
- B34 — lower, 0.95
- B35 — lower, 0.66
- B36 — lower, 0.77
- B37 — higher, 1.28

biological target: T3, human FcγRIIIA-F158 α subunit extracellular domain-6His-GST fusion (human, UniProt P08637 17-208); test: ELISA, IgG:IgE hexamers on receptor-GST
T3 construct: also called FcγRIIIA-Phe158; not shown: glutathione S-transferase (GST)
T3 sequence (P08637 other isoform, or with tags, fused parts or gaps, form in doubt): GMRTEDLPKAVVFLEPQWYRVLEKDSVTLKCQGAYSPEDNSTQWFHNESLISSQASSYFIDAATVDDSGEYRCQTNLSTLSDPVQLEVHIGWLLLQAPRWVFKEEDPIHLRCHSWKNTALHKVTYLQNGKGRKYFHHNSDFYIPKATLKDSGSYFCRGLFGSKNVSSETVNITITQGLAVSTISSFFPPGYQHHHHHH

Point of comparison: B33, “ratio to native IgG1” value 0.37. Against it:
- B1 — higher, 0.88
- B2 — higher, 0.5
- B3 — higher, 0.82
- B4 — higher, 0.76
- B5 — higher, 1.05
- B6 — lower, 0.06
- B7 — higher, 0.9
- B8 — higher, 1.19
- B9 — higher, 0.81
- B10 — lower, 0.14
- B11 — higher, 1.4
- B12 — higher, 0.72
- B13 — higher, 1.16
- B14 — lower, 0.07
- B38 — higher, 1.26
- B39 — higher, 0.94
- B15 — higher, 0.95
- B40 — higher, 0.85
- B16 — higher, 0.62
- B17 — higher, 0.85
- B18 — higher, 0.84
- B20 — higher, 0.72
- B21 — lower, 0.02
- B22 — lower, 0.28
- B23 — lower, 0.02
- B24 — higher, 1.05
- B25 — higher, 1.13
- B26 — higher, 1.28
- B27 — higher, 1.23
- B28 — higher, 0.56
- B29 — higher, 0.56
- B30 — lower, 0.36
- B31 — higher, 1.09
- B32 — lower, 0.04
- B34 — higher, 0.84
- B35 — higher, 0.84
- B36 — higher, 0.99
- B37 — higher, 0.94
